The text below walks through data of publication PMC11519345, “Structural variation of types IV-A1- and IV-A3-mediated CRISPR interference”.

The target of series [1] is Type IV-A3 effector complex (Cas5-Cas8-Cas7-Cas6 crRNP), DinG-free (Klebsiella pneumoniae) (UniProt A0A8G1XN67+A0A7Z7WW72+A0A333ESG5). Put plainly: EMSA. The conditions noted are these: crRNA; EMSA: 10 mM HEPES pH 7.5, 150 mM NaCl, 1 nM DNA, on ice then 20 min RT, 6% native PAGE in TBE at 4 C; cryo-EM: 10 uM complex + 15 uM DNA in the same buffer …; scale: fold tighter than type IV-A1 complex on its target. A general note: A gel shift assay detects complexes by their altered migration in electrophoresis.

The target in series [2] is type IV-A1 Cas7 (Csf2) from Pseudomonas oleovorans (Pseudomonas oleovorans). Kind of series: cryo-EM structure; type IV-A1 effector complex (10 µM) reconstituted with bubbled target dsDNA (15 µM) in 10 mM HEPES-Na pH 7.5, 150 mM NaCl, then SEC; particle class without DinG.
Series [3] deals with type IV-A3 Cas7 (Csf2) from Klebsiella pneumoniae (Klebsiella pneumoniae). Put plainly: cryo-EM structure; type IV-A3 effector complex (10 µM) reconstituted with bubbled target dsDNA (15 µM) in 10 mM HEPES-Na pH 7.5, 150 mM NaCl, then SEC; without DinG.
For series [4], the target named is T1, Type IV-A1 effector complex (Cas5-Cas8-Cas7-Cas6 crRNP), DinG-free (Pseudomonas oleovorans, UniProt A0A379PL53;A0A379PIR4;A0A379PIR9;A0A379PNK2 1-222;1-240;1-347;1-236).
T1 sequence 1: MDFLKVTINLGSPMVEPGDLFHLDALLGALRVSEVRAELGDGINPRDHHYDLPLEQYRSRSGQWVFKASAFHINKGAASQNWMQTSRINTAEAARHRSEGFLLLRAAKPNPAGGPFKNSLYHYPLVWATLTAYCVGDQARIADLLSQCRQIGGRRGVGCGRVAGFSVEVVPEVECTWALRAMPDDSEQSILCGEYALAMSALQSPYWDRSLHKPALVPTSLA
T1 sequence 2: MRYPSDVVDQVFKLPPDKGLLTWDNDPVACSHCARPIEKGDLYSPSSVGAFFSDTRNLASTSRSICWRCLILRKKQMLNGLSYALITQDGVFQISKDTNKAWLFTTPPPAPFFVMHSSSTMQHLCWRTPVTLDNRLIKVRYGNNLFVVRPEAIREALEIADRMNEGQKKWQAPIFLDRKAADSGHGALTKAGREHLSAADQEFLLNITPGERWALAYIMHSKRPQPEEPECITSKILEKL
T1 sequence 3: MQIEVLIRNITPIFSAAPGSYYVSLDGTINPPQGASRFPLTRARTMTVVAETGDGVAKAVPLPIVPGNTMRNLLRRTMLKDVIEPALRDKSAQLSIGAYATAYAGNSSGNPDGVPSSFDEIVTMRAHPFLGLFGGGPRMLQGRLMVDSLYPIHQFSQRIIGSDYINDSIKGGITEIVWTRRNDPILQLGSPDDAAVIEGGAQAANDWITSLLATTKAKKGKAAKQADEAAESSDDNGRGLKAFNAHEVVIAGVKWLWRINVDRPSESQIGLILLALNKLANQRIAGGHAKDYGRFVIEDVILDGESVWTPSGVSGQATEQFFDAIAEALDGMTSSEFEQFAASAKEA
T1 sequence 4: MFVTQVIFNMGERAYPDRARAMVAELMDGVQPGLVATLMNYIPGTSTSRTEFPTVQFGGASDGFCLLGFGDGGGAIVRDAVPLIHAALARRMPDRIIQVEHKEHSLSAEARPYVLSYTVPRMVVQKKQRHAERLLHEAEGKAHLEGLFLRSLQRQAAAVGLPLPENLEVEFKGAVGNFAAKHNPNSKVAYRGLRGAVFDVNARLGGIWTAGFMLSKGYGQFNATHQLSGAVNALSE
Kind of series: cryo-EM; crRNA; no DinG; 3.0 A; PDB code not assigned in the material (8RC2/8RC3/8RFJ); EMSA: 10 mM HEPES pH 7.5, 150 mM NaCl, 1 nM DNA, on ice then 20 min RT, 6% native PAGE in TBE at 4 C; cryo-EM: 10 uM complex + 15 uM DNA in the same buffer, 10. The conditions noted are these: protein: recombinant; tags: His6 C-terminal on Cas8; copies: 1;1;5;1; bubble: non-complementary protospacer, paired 15 nt and 14+ nt ends.

As a reminder, the stoichiometry N is a count of units in the complex or per binding partner.

Turning to IV-A3 EMSA target, no mismatch, the binding signal in series [1] was 10.

For the molecule “type IV-A1 Cas7 (Csf2) from Pseudomonas oleovorans (natural protein)”, the stoichiometry N in series [2] was found to be 5.

In turn, “type IV-A3 Cas7 (Csf2) from Klebsiella pneumoniae (natural protein)” had a stoichiometry N in series [3] of 6.

B1: Type IV-A1 bubbled target DNA (TS/NTS) for cryo-EM (dsDNA)
DNA 1: CGGTCGGGTCATACGTCGCGTCTCGAATCTGATGCGTAACTTGGATGCTTCGTGCGTGATG
DNA 2: CATCACGCACGAAGACCAAGTCAATGCTTAGTCTAATACCTGCGCTCGTATGACCCGACCG
Consider B1, for which, in series [4], the binding result is “binds”.
